Laboratory results taken from patent US20200299408A1 (Genentech, published 2020).
Several values for one entry are separate records, joined by “and”; a condition that tells them apart may be missing. Identical values can stand only once.

Key:
[1] = target: T1, cyCD3εγ (cynomolgus monkey); assay: monovalent binding affinity, method not stated on the sheet
T1 chain 1: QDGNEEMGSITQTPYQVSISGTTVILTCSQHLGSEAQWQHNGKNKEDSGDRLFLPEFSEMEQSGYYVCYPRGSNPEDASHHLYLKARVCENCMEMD
T1 chain 2: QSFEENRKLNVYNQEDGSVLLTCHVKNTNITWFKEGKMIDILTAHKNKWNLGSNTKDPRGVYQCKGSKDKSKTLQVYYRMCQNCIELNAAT

[2] = target: T2, commercial CD3ε (Creative Biomart, Catalog Number CD3E-2194H) (human, UniProt P07766); assay: binding affinity on commercial CD3ε (Creative Biomart CD3E-2194H); method not stated in the legend
T2 construct: commercial recombinant protein; also called commercial CD3E

[3] = target: T3, human CD3 on T cells (human, UniProt P07766 22-207); assay: Scatchard; table headed 'Bivalent Binding Affinity', though its footnote reads 'monovalent binding Kd measured by scatchard'; cells not named
T3 construct: whole, on cells; On cells CD3ε stands in the CD3/TCR complex; also called CD3 antigen; CD3ε

[4] = target: T4, single chain human CD3ε-26mer-CD3γ (CD3εγ) (human); assay: Biacore, human CD3εγ on chip, TDB in flow through
T4 construct: also called human CD3εγ
T4 chain: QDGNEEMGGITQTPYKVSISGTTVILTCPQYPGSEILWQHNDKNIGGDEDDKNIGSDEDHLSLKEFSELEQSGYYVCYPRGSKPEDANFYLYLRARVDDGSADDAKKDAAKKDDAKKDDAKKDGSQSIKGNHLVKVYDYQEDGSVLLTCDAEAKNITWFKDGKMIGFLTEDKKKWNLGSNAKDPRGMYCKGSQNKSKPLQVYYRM
Description: (§1) Binding affinities for the each of the CD3/CD20 TDBs were tested by Biacore or FACS analysis, as described above for the anti-CD3 antibodies. Briefly, for Biacore binding assays, human CD3εγ was immobilized on Biacore Series S CM5 sensor chip using the amine coupling kit from Biacore and CD3/CD20 TDBs or Fab variants thereof were in the flow through. For FACS binding assays, either Bjab cells (for B cell antigens) or Jurkat cells (for CD3 antigen) were incubated with various concentrations of TDB antibodies at 4° C. for 30 minutes, then cells were washed and incubated with 2nd antibody (anti-huIgG-PE; BD Bioscience) for another 15 minutes, before cells were washed again and ready for FACS analysis.

[5] = target: T3, human CD3 on T cells; assay: FACS on Jurkat cells (CD3); EC50 table for the curves of FIGS. 21A-21B; source CHO (N297G)
Description: as §1

[6] = target: T3, human CD3 on T cells; assay: FACS on Jurkat cells (CD3), anti-huIgG-PE; number printed beside the curve without a quantity name, taken as EC50
Description: as §1

[7] = target: T3, human CD3 on T cells; assay: as above; remark: listed apart in the source
Description: as §1

[8] = target: T3, human CD3 on T cells; assay: as above; remark: listed apart in the source
Description: as §1

[9] = target: T4, single chain human CD3ε-26mer-CD3γ …; assay: Biacore, monovalent KD of the CD3 arm; CD3 antigen not named on the sheet (reactivity hu, cyno)

B1: SP34v52 Fab (Fab, V domains shown)
VH: EVQLVESGGGLVQPGGSLRLSCAASGFTFNTYAMNWVRQAPGKGLEWVARIRSKYNNYATYYADSVKDRFTISRDDSKNTLYLQMNSLRAEDTAVYYCVRHGNFGNSYVSWFAYWGQGTLVTVSS
VL: EAVVTQEPSLTVSPGGTVTLTCRSSTGAVTTSNYANWVQQKPGQAPRGLIGGTNKRAPWTPARFSGSLLGGKAALTLSGAQPEDEAEYYCALWYSNLWVFGGGTKLTVL
Kd [1]: 12 nM

B2: humanized 40G5c variant: VH1 graft + V67A + I69L + R71A / K4 graft (antibody, V domains shown)
VH: EVQLVQSGAEVKKPGASVKVSCKASGYTFTNYYIHWVRQAPGQGLEWIGWIYPGDGNTKYNEKFKGRATLTADTSTSTAYLELSSLRSEDTAVYYCARDSYSNYYFDYWGQGTLVTVSS
VL: DIVMTQSPDSLAVSLGERATINCKSSQSLLNSRTRKNYLAWYQQKPGQPPKLLIYWASTRESGVPDRFSGSGSGTDFTLTISSLQAEDVAVYYCTQSFILRTFGQGTKVEIK
Kd [2]: 24 nM

B3: humanized 40G5c variant: VH1 graft + I69L + R71A / K4 graft (antibody, V domains shown)
VH: EVQLVQSGAEVKKPGASVKVSCKASGYTFTNYYIHWVRQAPGQGLEWIGWIYPGDGNTKYNEKFKGRVTLTADTSTSTAYLELSSLRSEDTAVYYCARDSYSNYYFDYWGQGTLVTVSS
VL: DIVMTQSPDSLAVSLGERATINCKSSQSLLNSRTRKNYLAWYQQKPGQPPKLLIYWASTRESGVPDRFSGSGSGTDFTLTISSLQAEDVAVYYCTQSFILRTFGQGTKVEIK
Kd [2]: 36 nM

B4: humanized 40G5c variant: VH1 graft + V67A + R71A / K4 graft (antibody, V domains shown)
VH: EVQLVQSGAEVKKPGASVKVSCKASGYTFTNYYIHWVRQAPGQGLEWIGWIYPGDGNTKYNEKFKGRATITADTSTSTAYLELSSLRSEDTAVYYCARDSYSNYYFDYWGQGTLVTVSS
VL: DIVMTQSPDSLAVSLGERATINCKSSQSLLNSRTRKNYLAWYQQKPGQPPKLLIYWASTRESGVPDRFSGSGSGTDFTLTISSLQAEDVAVYYCTQSFILRTFGQGTKVEIK
Kd [2]: 37 nM

B5: K&H 2H7v16/hu UCHT1v1 (bispecific antibody, V domains shown)
VH 1: EVQLVESGGGLVQPGGSLRLSCAASGYTFTSYNMHWVRQAPGKGLEWVGAIYPGNGDTSYNQKFKGRFTISVDKSKNTLYLQMNSLRAEDTAVYYCARVVYYSNSYWYFDVWGQGTLVTVSS
VL 1: DIQMTQSPSSLSASVGDRVTITCRASSSVSYMHWYQQKPGKAPKPLIYAPSNLASGVPSRFSGSGSGTDFTLTISSLQPEDFATYYCQQWSFNPPTFGQGTKVEIK
VH 2: EVQLVESGGGLVQPGGSLRLSCAASGYSFTGYTMNWVRQAPGKGLEWVALINPYKGVTTYADSVKGRFTISVDKSKNTAYLQMNSLRAEDTAVYYCARSGYYGDSDWYFDVWGQGTLVTVSS
VL 2: DIQMTQSPSSLSASVGDRVTITCRASQDIRNYLNWYQQKPGKAPKLLIYYTSRLESGVPSRFSGSGSGTDYTLTISSLQPEDFATYYCQQGNTLPWTFGQGTKVEIK
modifications: Knob-into-hole full-length IgG; constant regions are not in the letters.
notes: also called CD3/CD20 TDB 2H7v16/UCHT1v1
Kd [3]: 300 nM

B6: KH CD20 2H7v16/38E4v1 (bispecific antibody)
anti-CD20 arm heavy chain: EVQLVESGGGLVQPGGSLRLSCAASGYTFTSYNMHWVRQAPGKGLEWVGAIYPGNGDTSYNQKFKGRFTISVDKSKNTLYLQMNSLRAEDTAVYYCARVVYYSNSYWYFDVWGQGTLVTVSS
anti-CD20 arm light chain: DIQMTQSPSSLSASVGDRVTITCRASSSVSYMHWYQQKPGKAPKPLIYAPSNLASGVPSRFSGSGSGTDFTLTISSLQPEDFATYYCQQWSFNPPTFGQGTKVEIK
anti-CD3 arm heavy chain: EVQLVQSGAEVKKPGASVKVSCKASGFTFTSYYIHWVRQAPGQGLEWIGWIYPENDNTKYNEKFKDRVTITADTSTSTAYLELSSLRSEDTAVYYCARDGYSRYYFDYWGQGTLVTVSS
anti-CD3 arm light chain: DIVMTQSPDSLAVSLGERATINCKSSQSLLNSRTRKNYLAWYQQKPGQSPKLLIYWTSTRKSGVPDRFSGSGSGTDFTLTISSLQAEDVAVYYCKQSFILRTFGQGTKVEIK
notes: also called 38E4v1 CHO
Kd [4]: 1.28 nM and 1.3 nM | koff [4]: 0.00515 s⁻¹ | kon [4]: 4.03e+06 M⁻¹ s⁻¹ | EC50 [5]: 0.24 µg/mL and ~1.6 nM | EC50 [6]: 0.243 µg/mL and 1.6 nM

B7: KH CD20 2H7v16/hu38E4c (bispecific antibody)
anti-CD20 arm heavy chain: EVQLVESGGGLVQPGGSLRLSCAASGYTFTSYNMHWVRQAPGKGLEWVGAIYPGNGDTSYNQKFKGRFTISVDKSKNTLYLQMNSLRAEDTAVYYCARVVYYSNSYWYFDVWGQGTLVTVSS
anti-CD20 arm light chain: DIQMTQSPSSLSASVGDRVTITCRASSSVSYMHWYQQKPGKAPKPLIYAPSNLASGVPSRFSGSGSGTDFTLTISSLQPEDFATYYCQQWSFNPPTFGQGTKVEIK
anti-CD3 arm heavy chain: EVQLVQSGAEVKKPGASVKVSCKASGFTFTSYYIHWVRQAPGQGLEWIGWIYPENDNTKYNEKFKDRVTITADTSTSTAYLELSSLRSEDTAVYYCARDSYSNYYFDYWGQGTLVTVSS
anti-CD3 arm light chain: DIVMTQSPDSLAVSLGERATINCKSSQSLLNSRTRKNYLAWYQQKPGQSPKLLIYWTSTRKSGVPDRFSGSGSGTDFTLTISSLQAEDVAVYYCTQSFILRTFGQGTKVEIK
notes: also called CD3/CD20 TDB 2H7v16/38E4c
EC50 [7]: 1.01 µg/mL

B8: KH CD20 2H7v16/SP34v52 (bispecific antibody, V domains shown)
VH 1: EVQLVESGGGLVQPGGSLRLSCAASGYTFTSYNMHWVRQAPGKGLEWVGAIYPGNGDTSYNQKFKGRFTISVDKSKNTLYLQMNSLRAEDTAVYYCARVVYYSNSYWYFDVWGQGTLVTVSS
VL 1: DIQMTQSPSSLSASVGDRVTITCRASSSVSYMHWYQQKPGKAPKPLIYAPSNLASGVPSRFSGSGSGTDFTLTISSLQPEDFATYYCQQWSFNPPTFGQGTKVEIK
VH 2: EVQLVESGGGLVQPGGSLRLSCAASGFTFNTYAMNWVRQAPGKGLEWVARIRSKYNNYATYYADSVKDRFTISRDDSKNTLYLQMNSLRAEDTAVYYCVRHGNFGNSYVSWFAYWGQGTLVTVSS
VL 2: EAVVTQEPSLTVSPGGTVTLTCRSSTGAVTTSNYANWVQQKPGQAPRGLIGGTNKRAPWTPARFSGSLLGGKAALTLSGAQPEDEAEYYCALWYSNLWVFGGGTKLTVL
modifications: Knob-into-hole full-length IgG; constant regions are not in the letters.
notes: full-length knob-into-hole human IgG1 TDB; also called CD3/CD20 TDB 2H7v16/SP34v52
EC50 [7]: 1.11 µg/mL | EC50 [6]: 0.6 µg/mL and 4 nM

B9: KH CD20 2H7v16/hu40G5c (bispecific antibody, V domains shown)
VH 1: EVQLVESGGGLVQPGGSLRLSCAASGYTFTSYNMHWVRQAPGKGLEWVGAIYPGNGDTSYNQKFKGRFTISVDKSKNTLYLQMNSLRAEDTAVYYCARVVYYSNSYWYFDVWGQGTLVTVSS
VL 1: DIQMTQSPSSLSASVGDRVTITCRASSSVSYMHWYQQKPGKAPKPLIYAPSNLASGVPSRFSGSGSGTDFTLTISSLQPEDFATYYCQQWSFNPPTFGQGTKVEIK
VH 2: EVQLVQSGAEVKKPGASVKVSCKASGYTFTNYYIHWVRQAPGQGLEWIGWIYPGDGNTKYNEKFKGRATLTADTSTSTAYLELSSLRSEDTAVYYCARDSYSNYYFDYWGQGTLVTVSS
VL 2: DIVMTQSPDSLAVSLGERATINCKSSQSLLNSRTRKNYLAWYQQKPGQPPKLLIYWASTRESGVPDRFSGSGSGTDFTLTISSLQAEDVAVYYCTQSFILRTFGQGTKVEIK
modifications: Knob-into-hole full-length IgG; constant regions are not in the letters.
notes: also called KH CD20 2H7v16/40G5c; CD20KH (2H7v16/40G5c)
EC50 [7]: 1.21 µg/mL | EC50 [6]: 1.25 µg/mL and 8.3 nM | EC50 [8]: 1.6 µg/mL and 11 nM

B10: CD20KH (2H7v16/21A9) (bispecific antibody, V domains shown)
VH 1: EVQLVESGGGLVQPGGSLRLSCAASGYTFTSYNMHWVRQAPGKGLEWVGAIYPGNGDTSYNQKFKGRFTISVDKSKNTLYLQMNSLRAEDTAVYYCARVVYYSNSYWYFDVWGQGTLVTVSS
VL 1: DIQMTQSPSSLSASVGDRVTITCRASSSVSYMHWYQQKPGKAPKPLIYAPSNLASGVPSRFSGSGSGTDFTLTISSLQPEDFATYYCQQWSFNPPTFGQGTKVEIK
VH 2: EVQLVESGGGVVQPGGSLKLSCAASGFTFSGSAMHWVRQASEKGLEWVGRIRSRANSYATAYAASVKDRFTISRDNSKNTAYLQMNSLKTEDTAVYYCIRDTMVRGIDYWGQGTLVTVSS
VL 2: not shown
modifications: Knob-into-hole full-length IgG; constant regions are not in the letters.
notes: also called CD3/CD20 TDB 2H7v16/21A9
EC50 [8]: 1.6 µg/mL and 11 nM

B11: murine 38E4 (antibody, V domains shown)
VH: QVQLQQSGPELVKPGASVTISCTASGFTFTSYYIHWVRQRPGQGLEWIGWIYPENDNTKYNEKFKDKATLTADTSSSTAYMQLSSLTSEDSAVYYCARDGYSRYYFDYWGQGTTLTVSS
VL: DIVMTQSPSFLAVSAGEKVTMSCKSSQSLLNSRTRKNYLAWYQQRPGQSPKLLIYWTSTRKSGVPDRFTGSGSGTDFTLTISSVQAEDLAIYYCKQSFILRTFGGGTKLEIK
notes: KD is printed as monovalent
Kd [9]: 0.75 nM

B12: murine SP34 (antibody, V domains shown)
VH: EVQLVESGGGLVQPKGSLKLSCAASGFTFNTYAMNWVRQAPGKGLEWVARIRSKYNNYATYYADSVKDRFTISRDDSQSILYLQMNNLKTEDTAMYYCVRHGNFGNSYVSWFAYWGQGTLVTVSS
VL: QAVVTQESALTTSPGETVTLTCRSSTGAVTTSNYANWVQEKPDHLFTGLIGGTNKRAPGVPARFSGSLIGDKAALTITGAQTEDEAIYFCALWYSNLWVFGGGTKLTVL
notes: KD is printed as monovalent
Kd [9]: 1.9 nM
